Numbering of substitutions follows the chain as printed.
T1: mouse SIRPA variant hmSIRPA_Δ1 (mouse (with human residues), UniProt P97797 35-513)
T1 construct: FLAG-tagged (pFLAG V5-DEST), on 293α cells
T1 chain: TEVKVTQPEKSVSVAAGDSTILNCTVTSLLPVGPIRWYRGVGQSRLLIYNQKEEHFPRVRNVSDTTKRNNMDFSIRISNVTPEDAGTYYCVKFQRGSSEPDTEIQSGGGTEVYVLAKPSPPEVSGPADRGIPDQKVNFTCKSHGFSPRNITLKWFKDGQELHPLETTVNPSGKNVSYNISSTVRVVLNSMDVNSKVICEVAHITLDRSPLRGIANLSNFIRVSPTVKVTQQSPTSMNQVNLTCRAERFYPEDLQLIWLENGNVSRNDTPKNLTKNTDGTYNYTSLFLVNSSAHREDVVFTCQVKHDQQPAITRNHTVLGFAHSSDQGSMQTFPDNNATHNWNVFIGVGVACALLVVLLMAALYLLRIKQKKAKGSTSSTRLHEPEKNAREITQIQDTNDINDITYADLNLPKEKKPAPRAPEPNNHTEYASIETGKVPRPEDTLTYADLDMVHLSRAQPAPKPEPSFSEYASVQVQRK

T2: mouse SIRPA_129 (mouse (129), UniProt P97797 32-513)
T2 construct: FLAG-tagged (pFLAG V5-DEST), on 293α cells; also called 129sv
T2 chain: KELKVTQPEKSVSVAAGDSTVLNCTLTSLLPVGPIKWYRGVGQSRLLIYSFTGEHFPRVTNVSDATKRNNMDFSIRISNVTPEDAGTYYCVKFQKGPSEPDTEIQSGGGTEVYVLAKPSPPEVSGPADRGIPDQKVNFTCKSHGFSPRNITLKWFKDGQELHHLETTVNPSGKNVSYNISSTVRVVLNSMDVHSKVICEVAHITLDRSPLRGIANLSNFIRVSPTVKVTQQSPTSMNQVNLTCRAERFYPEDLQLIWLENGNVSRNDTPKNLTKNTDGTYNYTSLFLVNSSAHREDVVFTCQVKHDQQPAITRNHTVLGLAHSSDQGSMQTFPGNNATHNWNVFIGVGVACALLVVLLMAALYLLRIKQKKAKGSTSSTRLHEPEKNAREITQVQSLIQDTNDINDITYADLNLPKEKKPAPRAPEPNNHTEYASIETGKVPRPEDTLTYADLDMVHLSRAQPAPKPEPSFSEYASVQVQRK

B1: humanized anti-SIRPA antibody hD13_H1L3 (antibody, human IgG4 S228P, kappa, F234A L235A, V domains shown)
VH: QVQLVESGGGVVQPGRSLRLSCAASGFTFSDYGMIWVRQAPGKGLEWVASISSSSSYIYYADSVKGRFTISRDNSKNRLYLQMNSLRAEDTAVYYCARRYYGFNYPFDYWGQGTMVTVSS
VL: DTQLTQSPSSLSASVGQRVTITCGASKSVRTYMHWYQQKPGKQPKLLIYSASNLEAGVPSRFSGSGSGTDFTLTISSLQPEDFATYYCQQSNEPPYTFGQGTKLEIKR
notes: hH1 heavy chain (IgG4proFALA) and hL3 kappa light chain; also called hD13_HIL3; HIL3 antibody
B2: humanized anti-SIRPA antibody hD13_H1L4 (antibody, human IgG4 S228P, kappa, F234A L235A, V domains shown)
VH: B1 VH
VL: DTVLTQSPDSLAVSLGQRATINCGASKSVRTYMHWYQQKPGQQPKLLIYSASNLEAGVPSRFSGSGSGTDFTLTISSLQAEDVAVYYCQQSNEPPYTFGQGTKVEIKR
notes: hH1 heavy chain (IgG4proFALA) and hL4 kappa light chain; also called hD13_HIL4; hD13_HIL4h
B3: humanized anti-SIRPA antibody hD13_H2L3 (antibody, human IgG4 S228P, kappa, F234A L235A, V domains shown)
VH: B1 VH with Q1E, R78T
VL: B1 VL
notes: hH2 heavy chain (IgG4proFALA) and hL3 kappa light chain; also called H2L3 antibody
B4: humanized anti-SIRPA antibody hD13_H2L2 (antibody, human IgG4 S228P, kappa, F234A L235A, V domains shown)
VH: B1 VH with Q1E, R78T
VL: B1 VL with D1A, T2I, Q43A
notes: hH2 heavy chain (IgG4proFALA) and hL2 kappa light chain; also called H2L2 antibody
B5: human chimeric anti-SIRPA antibody cD13 (antibody, human IgG4 S228P, kappa, F234A L235A, V domains shown)
VH: EVQLVESGGGLVQPGRSLKLSCLASGFTFSDYGMIWVRQAPGKGLEWVASISSSSSYIYYADTVKGRFTISRENAKNTLFLHMTSLRSEDTALYYCARRYYGFNYPFDYWGQGVMVTVSS
VL: DTVLTQSPALAVSLGQRVTISCGASKSVRTYMHWYQQKSGQQPKLLIYSASNLEAGVPSRFSGSGSGTDFTLTIDPVEADDIANYYCQQSNEPPYTFGAGTKLELKR
notes: Human IgG4proFALA heavy chain, human kappa light chain; also called cD13 (IgG4pf); human chimeric antibody D13

Each binder was assayed against T3, human SIRPA_V2 protein (human, UniProt P78324 31-504) (assay: cell-based ELISA on 293α cells expressing FLAG-tagged SIRPA_V2; Abs 490 normalized to FLAG tag [ii]).
T3 construct: Expressed on 293α cells from pcDNA3.2 V5-DEST or pFLAG V5-DEST (FLAG-tagged) vectors; also called human SIRPA Variant 2; ECD variant (full-length, amino acids 1 to 504)
Description: (§1) The 293a cells, described in Example 1)-6, were prepared at 5× 10⁵ cells/mL in a 10% FBS-containing DMEM medium. pFLAG V5-DEST-SIRPA_V1-V10, pFLAG V5-DEST-monkey SIRPA, pFLAG V5-DEST-mouse SIRPA, or pFLAG V5-DEST was introduced into the cells using Lipofectamine LTX (Invitrogen), and 100 μL each was aliquoted to a 96-well plate (Corning Incorporated) and cultured overnight in a 10% FBS-containing DMEM medium at 37° C. under a 5% CO₂ condition. The obtained introduced cells were used for cell-based ELISA in a state that they adhered. After the culture supernatant was removed, 50 μL per well of hD13_HIL3, hD13_HIL4h, hD13_H2L2, hD13_H2L3, or cD13 prepared in Examples 6 and 7 or a control antibody was added to each of various SIRPA genes-introduced cells at a final concentration of 0 to 10,000 ng/ml, and the mixture was allowed to stand at 4° C. for one hour. Thereafter, binding to human SIRPA was evaluated in the same manner as in Example 5-1.

| EC50 (read off the curve) | Binder |
| --- | --- |
| ~0.03 µg/mL | B1 |
| ~0.03 µg/mL | B2 |
| ~0.03 µg/mL | B3 |
| ~0.03 µg/mL | B4 |
| ~0.03 µg/mL | B5 |

These binders were tested against T4, human SIRPA_V8 (human, UniProt P78324 31-504) (assay: cell-based ELISA on 293α cells expressing FLAG-tagged SIRPA_V8; Abs 490 normalized to FLAG tag [iv]).
T4 construct: FLAG-tagged (pFLAG V5-DEST), on 293α cells; also called human SIRPA Variant 8
Description: as §1

| EC50 (read off the curve) | Binder |
| --- | --- |
| ~0.04 µg/mL | B1 |
| ~0.04 µg/mL | B2 |
| ~0.04 µg/mL | B3 |
| ~0.04 µg/mL | B4 |
| ~0.04 µg/mL | B5 |

Molecular target: T1, mouse SIRPA variant hmSIRPA_Δ1
Assay: cell-based ELISA on 293α cells expressing FLAG-tagged hmSIRPA_Δ1; Abs 490 normalized to FLAG tag [ii]
Description: After the culture supernatant of 293α cells into which the pFLAG V5-DEST-hmSIRPA_Δ0, Δ1, and Δ2 expression vector prepared in 2)-1-2-2 was introduced and the pFLAG V5-DEST-introduced 293α cells was removed, 50 μL per well of four different D13 humanized anti-human SIRPA antibodies and a chimeric anti-human SIRPA antibody diluted with 5% FBS-containing PBS to a final concentration of 10,000 ng/mL were added to these cells, and the mixture was allowed to stand at 4° C. for one hour. Further, 50 μL per well of an anti-FLAG M2 antibody (SIGMA) diluted with 5% FBS-containing PBS to a final concentration of 10,000 ng/mL was added to a well for detecting expression of each SIRPA construct, and the mixture was allowed to stand at 4° C. for one hour. Thereafter, binding to each construct was evaluated in the same manner as in the evaluation of the binding activity of the human SIRPA. Binding of anti-human SIRPA antibodies to each construct was standardized by expression of the FLAG tag.

| binding result | Binder |
| --- | --- |
| no binding (tested: 10000 ng/mL) | B1 |
| no binding (tested: 10000 ng/mL) | B2 |
| no binding (tested: 10000 ng/mL) | B3 |
| no binding (tested: 10000 ng/mL) | B4 |
| no binding (tested: 10000 ng/mL) | B5 |

Each binder was assayed against T5, human SIRPA_V7 (human, UniProt P78324 31-504) (assay: cell-based ELISA on 293α cells expressing FLAG-tagged SIRPA_V7; Abs 490 normalized to FLAG tag [iii]).
T5 construct: FLAG-tagged (pFLAG V5-DEST), on 293α cells; also called human SIRPA Variant 7
Description: as §1

T5 sequence (P78324 other isoform, or with tags, fused parts or gaps limits assumed): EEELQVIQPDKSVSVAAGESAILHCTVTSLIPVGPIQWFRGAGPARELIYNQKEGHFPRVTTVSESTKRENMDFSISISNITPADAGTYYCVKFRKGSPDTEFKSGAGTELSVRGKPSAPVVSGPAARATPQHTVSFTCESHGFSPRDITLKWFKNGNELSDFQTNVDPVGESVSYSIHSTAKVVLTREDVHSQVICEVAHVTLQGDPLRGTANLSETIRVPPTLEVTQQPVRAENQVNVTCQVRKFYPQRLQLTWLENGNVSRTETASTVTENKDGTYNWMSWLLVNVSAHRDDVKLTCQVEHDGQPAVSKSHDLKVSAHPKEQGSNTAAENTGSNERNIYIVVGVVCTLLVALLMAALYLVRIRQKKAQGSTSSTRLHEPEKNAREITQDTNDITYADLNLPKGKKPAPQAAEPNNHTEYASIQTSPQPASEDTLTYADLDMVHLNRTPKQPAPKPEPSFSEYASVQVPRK

| EC50 (read off the curve) | Binder |
| --- | --- |
| ~0.04 µg/mL | B1 |
| ~0.04 µg/mL | B2 |
| ~0.04 µg/mL | B3 |
| ~0.04 µg/mL | B4 |
| ~0.04 µg/mL | B5 |

Molecular target: T2, mouse SIRPA_129
Assay: cell-based ELISA on 293α cells expressing FLAG-tagged mouse SIRPA (129sv); Abs 490 normalized to FLAG tag [iii]
Description: as §1

| binding result | Binder |
| --- | --- |
| no binding (tested: 10000 ng/mL) | B1 |
| no binding (tested: 10000 ng/mL) | B2 |
| no binding (tested: 10000 ng/mL) | B3 |
| no binding (tested: 10000 ng/mL) | B4 |
| no binding (tested: 10000 ng/mL) | B5 |
